Laboratory results: paper PMC5007331, “YTHDF2 destabilizes m^6A-containing RNA through direct recruitment of the CCR4–NOT deadenylase complex” (Nature Communications, 2016)

T1: His-tagged full-length YTHDF2 (human, UniProt Q9Y5A9 1-579)
T1 sequence (looked up): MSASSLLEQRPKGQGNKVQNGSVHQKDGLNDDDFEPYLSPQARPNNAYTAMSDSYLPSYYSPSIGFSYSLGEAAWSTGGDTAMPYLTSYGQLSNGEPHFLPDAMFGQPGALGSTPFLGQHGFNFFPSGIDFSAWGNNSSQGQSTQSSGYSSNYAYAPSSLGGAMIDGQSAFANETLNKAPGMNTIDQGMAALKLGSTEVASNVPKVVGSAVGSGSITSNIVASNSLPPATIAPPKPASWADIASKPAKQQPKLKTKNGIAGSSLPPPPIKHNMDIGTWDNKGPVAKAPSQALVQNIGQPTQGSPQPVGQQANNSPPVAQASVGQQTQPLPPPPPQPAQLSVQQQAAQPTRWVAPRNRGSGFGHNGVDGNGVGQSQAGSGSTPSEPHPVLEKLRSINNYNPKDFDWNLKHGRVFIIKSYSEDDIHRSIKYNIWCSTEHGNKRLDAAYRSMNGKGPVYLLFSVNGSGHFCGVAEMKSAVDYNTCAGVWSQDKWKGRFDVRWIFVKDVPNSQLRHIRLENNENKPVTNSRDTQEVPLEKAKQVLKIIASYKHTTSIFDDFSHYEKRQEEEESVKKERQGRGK

B1: CNOT1 SH domain-GST fusion protein (aa 1842-2376) (domain or fragment, human, UniProt A5YKK6 1842-2376, looked up)
chain: YDDPPGLREKAEYLLREWVNLYHSAAAGRDSTKAFSAFVGQMHQQGILKTDDLITRFFRLCTEMCVEISYRAQAEQQHNPAANPTMIRAKCYHNLDAFVRLIALLVKHSGEATNTVTKINLLNKVLGIVVGVLLQDHDVRQSEFQQLPYHRIFIMLLLELNAPEHVLETINFQTLTAFCNTFHILRPTKAPGFVYAWLELISHRIFIARMLAHTPQQKGWPMYAQLLIDLFKYLAPFLRNVELTKPMQILYKGTLRVLLVLLHDFPEFLCDYHYGFCDVIPPNCIQLRNLILSAFPRNMRLPDPFTPNLKVDMLSEINIAPRILTNFTGVMPPQFKKDLDSYLKTRSPVTFLSDLRSNLQVSNEPGNRYNLQLINALVLYVGTQAIAHIHNKGSTPSMSTITHSAHMDIFQNLAVDLDTEGRYLFLNAIANQLRYPNSHTHYFSCTMLYLFAEANTEAIQEQITRVLLERLIVNRPHPWGLLITFIELIKNPAFKFWNHEFVHCAPEIEKLFQSVAQCCMGQKQAQQVMEGTGAS

Columns and labels:
[1] = target: B1; experiment: pull-down; GST pull-down: 40 pmol YTHDF2 fragment with 40 pmol GST or GST-CNOT1 (aa 1842-2376) on glutathione Sepharose-4B; 20 mM HEPES pH 7.4, 200 mM NaCl, 0.1% Tween-20; 2 h at 4 °C; SDS-PAGE and Coomassie Blue staining; settings: both partners purified
[2] = target: T1, His-tagged full-length YTHDF2; experiment: as above; settings: both partners purified

Binder	binding result [1]	binding result [2]
His-tagged YTHDF2-N (YTHDF2-1-400) (domain or fragment, human, UniProt Q9Y5A9 1-400, looked up, YTHDF2, human, N-terminal region, aa 1-400; Cloned into pET-28a; The YTHDF2-N of the tethering plasmids is another construct (aa 1-389); source: E. coli, purified recombinant) MSASSLLEQRPKGQGNKVQNGSVHQKDGLNDDDFEPYLSPQARPNNAYTAMSDSYLPSYYSPSIGFSYSLGEAAWSTGGDTAMPYLTSYGQLSNGEPHFLPDAMFGQPGALGSTPFLGQHGFNFFPSGIDFSAWGNNSSQGQSTQSSGYSSNYAYAPSSLGGAMIDGQSAFANETLNKAPGMNTIDQGMAALKLGSTEVASNVPKVVGSAVGSGSITSNIVASNSLPPATIAPPKPASWADIASKPAKQQPKLKTKNGIAGSSLPPPPIKHNMDIGTWDNKGPVAKAPSQALVQNIGQPTQGSPQPVGQQANNSPPVAQASVGQQTQPLPPPPPQPAQLSVQQQAAQPTRWVAPRNRGSGFGHNGVDGNGVGQSQAGSGSTPSEPHPVLEKLRSINNYNP	binds	
B1		binds
His-tagged YTHDF2-101-200 (domain or fragment, human, UniProt Q9Y5A9 101-200, looked up, Cloned into pET-28a; source: E. coli, purified recombinant) PDAMFGQPGALGSTPFLGQHGFNFFPSGIDFSAWGNNSSQGQSTQSSGYSSNYAYAPSSLGGAMIDGQSAFANETLNKAPGMNTIDQGMAALKLGSTEVA	binds	
